Source: patent publication US20250084173A1 (4B TECHNOLOGIES SUZHOU, published 2025)

Assays:
[1] = molecular target: T1, recombinant mouse TrkA ECD protein (mouse, UniProt Q3UFB7 34-420); assay: ELISA on recombinant TrkA ECD proteins (FIG. 1b)
T1 construct: extracellular domain; also called mTrkA-ECD-hFc; murine TrkA; not shown: C-terminal human Fc tag (hFc)

[2] = molecular target: T2, recombinant human TrkA ECD protein (human, UniProt P04629 33-423); assay: ELISA on recombinant TrkA ECD proteins (FIG. 1b)
T2 construct: extracellular domain; also called hTrkA-ECD-hFc; hTrkA; not shown: C-terminal human Fc tag (hFc)
T2 sequence (P04629 33-423): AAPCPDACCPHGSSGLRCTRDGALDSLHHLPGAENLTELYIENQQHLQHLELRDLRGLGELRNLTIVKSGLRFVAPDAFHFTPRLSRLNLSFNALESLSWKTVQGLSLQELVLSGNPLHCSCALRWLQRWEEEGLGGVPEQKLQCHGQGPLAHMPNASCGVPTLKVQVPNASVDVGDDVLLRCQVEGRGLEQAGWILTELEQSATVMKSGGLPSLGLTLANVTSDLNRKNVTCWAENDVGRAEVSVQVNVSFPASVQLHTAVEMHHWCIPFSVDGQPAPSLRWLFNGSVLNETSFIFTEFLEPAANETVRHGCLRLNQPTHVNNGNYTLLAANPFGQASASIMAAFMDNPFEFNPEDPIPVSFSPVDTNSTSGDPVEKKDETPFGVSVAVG

T1 sequence (Q3UFB7 34-420): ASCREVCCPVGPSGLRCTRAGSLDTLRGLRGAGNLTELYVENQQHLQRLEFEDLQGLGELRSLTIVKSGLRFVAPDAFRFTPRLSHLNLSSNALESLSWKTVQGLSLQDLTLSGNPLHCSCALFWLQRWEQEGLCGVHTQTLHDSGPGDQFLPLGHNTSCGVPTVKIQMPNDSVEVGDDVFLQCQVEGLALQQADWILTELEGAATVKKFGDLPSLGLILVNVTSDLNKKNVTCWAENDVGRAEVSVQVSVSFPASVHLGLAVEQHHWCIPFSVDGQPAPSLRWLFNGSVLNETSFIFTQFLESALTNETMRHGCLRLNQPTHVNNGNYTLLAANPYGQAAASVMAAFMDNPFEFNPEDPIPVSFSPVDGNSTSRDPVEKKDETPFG

binding result [1]: binds
binding result [2]: binds
B1: 27A6 (antibody, mouse IgG1, V domains shown)
VH: QVQLQQSGAELMEPGASVKISCKATGYTFSRYWIEWVQQRPGHGLEWIGEILPGSGTTNYNENFRGKATFTADTSSNTVYMQLISLTSEDSAVYYCARSYYGDFDAYWGQGTLVTVSA
VL: QAVVTQESALTTSPGETVTLTCRSSIGAVTTSNHANWVQEKPDHLFTGLIGGTNNRAPGVPARFSGSLIGDKAVLTITGAQTEDEAIYFCALWYSNHWVFGGGTKLTVLG
notes: also called TrkA antibody; TrkA antibody of the present application
